Columns and labels:
human IL-13 (human) = human IL-13 (human) (UniProt P35225); test: cell-based or functional assay
[1] = target: native (naturally occurring) human IL-13 released from HDLM-2 cells (human) (UniProt P35225); test: cell-based or functional assay
Chain of native (naturally occurring) human IL-13 released from HDLM-2 cells (human) (P35225 other isoform, or with tags, fused parts or gaps): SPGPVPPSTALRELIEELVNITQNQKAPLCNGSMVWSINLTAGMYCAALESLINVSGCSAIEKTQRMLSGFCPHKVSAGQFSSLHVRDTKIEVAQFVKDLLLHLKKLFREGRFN

Chain of human IL-13 (human) (P35225 other isoform, or with tags, fused parts or gaps): as above

Row | Substance | IC50, TF-1 proliferation assay (human IL-13 (human)) [pM] | IC50, eotaxin release from NHLF (human IL-13 (human)) [pM] | IC50, HDLM-2 cell proliferation assay [1] [nM]
1 | B-B13 (antibody) | 1020 | 219 | 16.7
2 | JES10-5A2 (antibody) | 471 | 623 | 10.7

Reference: patent publication US20070128192A1
